Patent publication US8877476B2, “Soluble and stable human 5-lipoxygenase” (Board of Supervisors of Louisiana State University and …, priority 2010, dated 2014)
Changes are numbered by the printed parent chain. Names may count otherwise.

B1: Sol-5-LOX: more soluble form of human 5-LOX, SEQ ID NO: 2 (W13E, F14H, Δ40-44GS, W75G, L76S, C240A, C561A) (protein)
chain: MGSSHHHHHHSSGLVPRGSHMPSYTVTVATGSQEHAGTDDYIYLSLVGSAGCSEKHLLDKGSFERGAVDSYDVTVDEELGEIQLVRIEKRKYGSNDDWYLKYITLKTPHGDYIEFPCYRWITGDVEVVLRDGRAKLARDDQIHILKQHRRKELETRQKQYRWMEWNPGFPLSIDAKCHKDLPRDIQFDSEKGVDFVLNYSKAMENLFINRFMHMFQSSWNDFADFEKIFVKISNTISERVMNHWQEDLMFGYQFLNGANPVLIRRCTELPEKLPVTTEMVECSLERQLSLEQEVQQGNIFIVDFELLDGIDANKTDPCTLQFLAAPICLLYKNLANKIVPIAIQLNQIPGDENPIFLPSDAKYDWLLAKIWVRSSDFHVHQTITHLLRTHLVSEVFGIAMYRQLPAVHPIFKLLVAHVRFTIAINTKAREQLICECGLFDKANATGGGGHVQMVQRAMKDLTYASLCFPEAIKARGMESKEDIPYYFYRDDGLLVWEAIRTFTAEVVDIYYEGDQVVEEDPELQDFVNDVYVYGMRGRKSSGFPKSVKSREQLSEYLTVVIFTASAQHAAVNFGQYDWASWIPNAPPTMRAPPPTAKGVVTIEQIVDTLPDRGRSCWHLGAVWALSQFQENELFLGMYPEEHFIEKPVKEAMARFRKNLEAIVSVIAERNKKKQLPYYYLSPDRIPNSVAI
modifications: Δ40-44 replaced by GS; Sol-5-LOX
B2: S663D-Stable-5-LOX: Stable-5-LOX with Serine 663 replaced with Aspartic acid, SEQ ID NO: 4, mimics phosphorylated state (protein)
chain: B1 chain with K671E, K672N, K673L, S681D
modifications: S663D-Stable-5-LOX

Key:
[1] = Melting curves (thermal denaturation, SYPRO Orange fluorescence); type: physicochemical; conditions: fluorescence vs temperature, four independent experiments in triplicate
Description: Melting temperature assays were performed according to the protocol described by Ericsson et al. (31) Protein was diluted to 1 μM in a final volume of 150 μl 5×SYPRO® Orange protein stain (Invitrogen, Carlsbad, Calif.). Samples were aliquoted in triplicate volumes of 40 μl in a 96-well reaction plate. The plate was subjected to a linear thermal shift from 5 to 94° C. in one degree increments in a 7500 Fast Real-Time PCR System (Applied Biosystems, Branchburg, N.J.). The SYBR Green cutoff filter was used for fluorescence detection of denaturing protein-SYPRO® Orange binding. The resulting data were exported to Sigma Plot 9, and the sigmoidal part of the curve was averaged for each triplicate. The averaged curves were subsequently fit to a four parameter sigmoidal equation. The Tm values reported are the results of four independent experiments, each in triplicate, with multiple protein preparations.

[2] = Enzyme half-life at 37° C. by monitoring enzyme activity (ΔA238) over 24 hrs; type: biochemical
[3] = Concentration to which the protein can be concentrated; type: physicochemical
[4] = Product assays (HPLC of arachidonic acid oxygenation products); type: biochemical
Description: Incubations were conducted in 0.5 ml 0.1 M Tris pH 7.5 containing 150 mM NaCl and 1 mM CaCl2 with 1-20 μg/ml 5-LOX enzyme. The reaction was initiated by addition of arachidonic acid (10-100 μM) added in 1-5 μl ethanol and monitored by UV spectroscopy until completion of reaction (5-10 min). Products were extracted by adjusting the solution to ˜pH 4 by addition of 50 μl 1 M KH2PO4 plus 5 μl 1N HCl and vigorous mixing with two volumes of dichloromethane. After a brief centrifugation to clear the phases, the lower organic layer was collected, washed twice with 0.5 ml water, taken to dryness under a stream of nitrogen, and then dissolved in a small volume of methanol for storage at −20° C. prior to HPLC. Reversed-phase HPLC was carried out using Agilent 1100 series equipment with a Waters C18 Symmetry column (25×0.46 cm), a solvent of acetonitrile/water/glacial acetic acid (60:40:0.01, v/v/v) or methanol/water/glacial acetic acid (80:20:0.01, v/v/v), a flow rate of 1 ml/min, with UV monitoring at 205 nm, 220 nm, 235 nm and 270 nm. The chirality of the product was confirmed as 5S: Mobile phase hexane/methanol 100:2; 1 ml/min; Chiralpak AD column (4.6×250 mm). The HETEs were made into the methyl esters before chiral analysis using ethereal diazomethane.

Molecule	Tm (with s.d.) [1]	half-life at 37° C. [2] [h]	can be concentrated to [3] [mg/mL]	products formed from arachidonic acid ([4]; HPLC chromatogram, FIG. 6D / FIG. 8)	change of product specificity by the S663D amino acid change ([4]; Serine 663 replaced with Aspartic acid, method not described)
B1	56.6(±0.4) ° C.	~7	2	produces both the intermediate 5S-HPETE and the product leukotriene A4	–
B2	–	–	–	–	converted the enzyme from a 5-LOX to a 15-LOX
